Changes are numbered by the printed parent chain. Names and notes keep the numbering of the source.
Tests used:
[1] = target: T1, glycolaldehyde (GA)-modified bovine serum albumin (Bos taurus, UniProt P02769, modified by glycolaldehyde (GA-pyridine forms on the ε-amino group of Lys residues); sites not given); experiment: ELISA; phage ELISA: GA-BSA coated on a 96-well plate, scFv display phage clones added for 1 h at 25 °C, detected with HRP-conjugated anti-M13 antibody; settings: one partner purified
T1 construct: bovine serum albumin; The scFvs are directed against GA-pyridine, a modified lysine; also called GA-BSA; source: BSA (25 mg/mL) incubated with 50 mM glycolaldehyde at 37 °C for 12 h, dialysed with PBS

[2] = target: T2, glyceraldehyde-modified BSA (Bos taurus, UniProt P02769, modified by glyceraldehyde; sites not given); experiment: ELISA; competitive ELISA of purified AGE73scFv with AGE-modified BSAs as competitors; coated antigen and conditions not told in the text shown (Figure S2); settings: both partners purified
T2 construct: bovine serum albumin; also called GCA-BSA

[3] = target: T1, glycolaldehyde (GA)-modified bovine …; experiment: as above; settings: both partners purified
[4] = target: T3, glucose-derived AGE-modified BSA (Bos taurus, UniProt P02769, glucose-derived AGE modification; sites not given); experiment: as above; settings: both partners purified
T3 construct: bovine serum albumin; also called Glc-BSA
T3 sequence (P02769 25-607): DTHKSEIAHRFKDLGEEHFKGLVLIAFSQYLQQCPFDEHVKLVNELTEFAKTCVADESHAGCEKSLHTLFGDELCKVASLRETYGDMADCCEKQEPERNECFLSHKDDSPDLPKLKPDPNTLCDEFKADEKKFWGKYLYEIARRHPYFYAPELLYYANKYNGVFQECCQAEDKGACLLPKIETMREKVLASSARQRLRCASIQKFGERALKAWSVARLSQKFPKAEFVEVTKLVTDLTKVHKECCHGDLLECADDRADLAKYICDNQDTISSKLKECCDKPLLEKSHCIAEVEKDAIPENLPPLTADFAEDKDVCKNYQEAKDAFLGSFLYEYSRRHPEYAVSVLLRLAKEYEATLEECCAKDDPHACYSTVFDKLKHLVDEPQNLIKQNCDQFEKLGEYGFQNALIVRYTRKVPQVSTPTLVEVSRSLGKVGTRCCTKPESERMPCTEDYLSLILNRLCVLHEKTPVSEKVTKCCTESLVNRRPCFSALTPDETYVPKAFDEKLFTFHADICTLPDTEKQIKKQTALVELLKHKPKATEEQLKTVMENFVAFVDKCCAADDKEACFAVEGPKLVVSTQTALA

T1 sequence (P02769 25-607): as above
T2 sequence (P02769 25-607): as above

B1: AGE73scFv displayed on phage (scFv, V domains shown)
VH: QVKLQQSGPSLVKPSQTLSLTCSVTGDSITSGYWNWIRKFPGNKFEYLGYISYSGRTYYNPSLKSRISITRDTSKNQYYLQLNSVTTEDTATYYCSRPYYRYDYAIDYWGQGTTVTVSS
VL: DIELTQSPAIMSASLGERVTMTCTASSSVSSSYLHWYQQKPGSSPKLWIYSTSNLASGVPARFSSSGSGTSYSLTISRMEAEDAATYYCQQSRKVPYTFGGGTKLEIK
notes: VH of AGE73scFv; as the VH of m1; (Gly-Gly-Gly-Gly-Ser)3 linker; VL of AGE73scFv; as the VL of m1
- binding result [1]: binds

B2: AGE78scFv displayed on phage (scFv, V domains shown)
VH: B1 VH with Q6E, Q81H, S96T, Y100H, Y108F
VL: DIELTQSPAIMSASPGEKVTMTCSASSSVSYMHWYQQKPGFSPKLLIYRTSNLASGVPARFSGSGSGTSYSLTIGTMEAEDVATYYCQQGSSIPYTFGGGTKLEIK
notes: VH of AGE78scFv; (Gly-Gly-Gly-Gly-Ser)3 linker; VL of AGE78scFv
- binding result [1]: binds

B3: AGE112scFv displayed on phage (scFv, V domains shown)
VH: B1 VH with Q6E
VL: DIELTQSPTTMAASPGEKITITCSASSSISSNYLHWYQQKPGFSPKLLIYSTSNLASGVPARFSGSGSGTSYSLTISSMEAEDAATYYCQQWSSNPYTFGGGTKLEIK
notes: VH of AGE112scFv; (Gly-Gly-Gly-Gly-Ser)3 linker; VL of AGE112scFv
- binding result [1]: binds

B4: 73MuL-S30P displayed on phage (scFv, V domains shown)
VH: B1 VH
VL: B1 VL with S31P
notes: as the VH of m1 (AGE73scFv); (Gly-Gly-Gly-Gly-Ser)3 linker; as the VL of m1 (AGE73scFv); source: second library, error-prone PCR of the VL of AGE73scFv
- binding result [1]: binds

B5: 73MuL-S56P displayed on phage (scFv, V domains shown)
VH: B1 VH
VL: B1 VL with S57P
notes: as the VH of m1 (AGE73scFv); (Gly-Gly-Gly-Gly-Ser)3 linker; as the VL of m1 (AGE73scFv); probably Kabat; source: second library, error-prone PCR of the VL of AGE73scFv
- binding result [1]: binds

B6: 73MuL-V94A displayed on phage (scFv, V domains shown)
VH: B1 VH
VL: B1 VL with V95A
notes: as the VH of m1 (AGE73scFv); (Gly-Gly-Gly-Gly-Ser)3 linker; as the VL of m1 (AGE73scFv) with V94A; probably Kabat; source: second library, error-prone PCR of the VL of AGE73scFv
- binding result [1]: binds

B7: AGE73scFv (scFv, V domains shown)
VH: B1 VH
VL: B1 VL
notes: VH of AGE73scFv, from the GA-KLH immunised mouse antibody library; (Gly-Gly-Gly-Gly-Ser)3 linker; VL of AGE73scFv, from the GA-KLH immunised mouse antibody library; the FLAG-tag lies on the N-terminal side of the hexahistidine-tag, so both are probably C-terminal of the scFv; also called anti-GA-pyridine scFv
- binding result [2]: binds
- binding result [3]: binds
- binding result [4]: binds
